For data set [1], the target named is anti-σ factor (ELI_10225) from Erythrobacter litoralis HTCC2594 (Erythrobacter litoralis HTCC2594) (UniProt Q2N854). The data set is described as follows: SEC-MALS.
Data set [2] concerns the molecule itself. The data set is described as follows: SEC-MALS.

Where a chain is given by its changes, count along the chain named. Numbers in names are those of the source.

In turn, “phospho-EL_PhyR (EL_PhyR phosphorylated by EL368 and ATP) (from UniProt Q2N856 1-266) (natural protein)” displayed a stoichiometry N in data set [1] of 1.

B1: EL368, LOV-histidine kinase from Erythrobacter litoralis HTCC2594 (enzyme, UniProt Q2NCA3 1-360, looked up)
chain: MPLKGEISAQAGREFDTSRLDLRAIIDPRDLRVDPTRLFLETTQQTRLAICISDPHQPDCPVVYVNQAFLDLTGYAREEIVGRNCRFLQGADTDPEQVRKLREGIAAERYTVVDLLNYRKDGIPFWNAVHVGPIYGEDGTLQYFYGSQWDITDIVAERRKAETQRRIAAELRHRTGNIFAVLNAIIGLTSRRERDVSEFADKLSERVSALASAHRMTIMDEPDQEAVAIDDLVTGVMKPYRNRFAERVTTSGPKIELGPRSVTALGLALHELATNAVKYGALSVDAGRVEISWSREDGDVTLVWQEQGGPTVSQEQSEPVKGNGTMLIDGMIASLTGSIERDFAAAGLQAKITLPVHQPE
For B1, the “stoichiometry N” value in data set [2] was determined as 2.

B2: EL362, LOV-histidine kinase from Erythrobacter litoralis HTCC2594 (wild type, Arg 150) (enzyme, UniProt Q2N9L9 1-362, looked up)
chain: MDDQPTTRANRVGHPESSRQAYSSESGATHGSLAFPGASGLLFEQAMAQTRMAVCLTDPHQPDHPIVFCNAAFERLTGYEEKDIIGRNCRFLQGARTDESQVARIRDALAKEEVAVVELLNYRKDGSTFWNALHLGPIYDESGKLKYFFRSQWDVTDIHEARAEQRHAKAMAREVSHRLKNVFSVIAGIVNITGRSMDARPVASRINERVQALGRAYEPTLDEAFMGTIEVGQAIRAILAPYDPEGDRVSLEGNGVRTEPNAISSIGLTLHELASNAIKYGALSNETGTIDVSWHHERDDHDRRRLVIDWKESGGPTIEGPPETGGTGFDISETLLSYSNGTLEKRWDRDGLFVRIAIPIEQ
Regarding B2, the binding result in data set [2] is given as “binds”.

B3: EL362(R150G) (enzyme, Erythrobacter litoralis HTCC2594, UniProt Q2N9L9 1-362, looked up)
chain: B2 chain with R150G
In the case of B3, the binding result in data set [2] is “binds”.

The record behind these values is article PMC3830641 (Biochemistry, 2013).
